One data set relates to SF-767 cells. Briefly: Cell killing by MTT assay, SF-767 cells. The class given is cell-based, human. The conditions noted are these: concentrations up to 10 μM. The procedure:
(§1) sLDL-PO was added to HeLa cells as shown in FIG. 16 and to SF-767 glioblastoma multiforme tumor cells (shown in FIG. 17) at concentrations between 0.05 and 50 μM and cell killing was determined by the MTT assay.
Cells were grown as in Example 3.

The subject of a further data set is HeLa cells. Briefly: Cell killing by MTT assay, HeLa cells. The conditions noted are these: concentrations up to 50 μM. The class given is cell-based, human. The procedure: as §1
(Tetrazolium dyes change colour on reduction, which living cells bring about.)

Data set [1] is described as follows: Phospholipid binding of peptides, PC-cholate micelles, cholate dialysis. The class given is physicochemical. To be noted: overnight incubation, dialysis (cutoff 10,000 MW). On the procedure:
The ability of the peptides to bind phospholipids was tested first. Phospholipid binding was used as a rapid screen for a peptide's ability to bind to the surface of a synthetic LDL-like nanoparticle. To make phospholipid complexes with peptides, egg yolk phosphatidylcholine (PC) and the cholate dialysis method were used similarly to what was previously employed to make synthetic nascent HDL particles (Segrest, J. P. et al., J. Lipid Res 33:141-166 (1992)). The PC-cholate micelles were incubated with the peptide overnight and then extensively dialyzed (dialysis membrane cutoff, 10,000 MW) to remove cholate and unbound peptide. The percent bound peptide, i.e., peptide that remains associated with the lipid micelles, was determined for each peptide and was 8%, 15% and 33%, for B-peptide, 11-A chimera and 18-A chimera, respectively. The B-peptide had poor lipid binding ability while the 11-mer peptide has low lipid binding compared to the 18-A chimera.

Data set [2] in a line: Peptide association with lipid microemulsion after dialysis. The class given is physicochemical. To be noted: 1.27 mg/ml peptide; PL:TO:CO 3:2:1; after extensive dialysis against Tris-saline buffer. The procedure: The 18-A chimera was utilized for making core-containing synthetic LDL. The procedure reported by Baille et al. (Baillie, G. et al., J Lipid Res 43:69-73 (2002)) was used with modifications. Microemulsions were formed using egg yolk phospholipid (PL), triolein (TO) and cholesteryl olein (CO) (mole ratio of 3:2:1) and 20 μM butylhydroxytoluene (BHT); the microemulsions were extruded through an Avanti miniextruder first using 100 nm polycarbonate filters followed by 30 nm polycarbonate filters. The lipid emulsions were incubated with 1.27 mg/ml 18-A chimera and lipid association determined after extensive dialysis against Tris-saline buffer to remove uncomplexed peptide. Approximately 85% of the added synthetic peptide remained associated with the lipid emulsions.
Characterization: Composition of particles was determined using the Markwell modification of the Lowry protein assay and enzymatic colorimetric assays for PL, TO and CO (Wako Kits). Size was determined by column chromatography using a Superose 6 fast protein liquid chromatography (FPLC) column. Samples were run at a flow rate of 0.5 mL/min and absorbance read at 280 nm. Referring now to FIG. 4, the composition of the synthetic LDL was characterized as 32% peptide, 68% lipid. 82%±9% of peptide (n=11) remained bound after dialysis. […]

Data set [3] can be described thus: Density distribution of lipidated 18-A chimera by sequential ultracentrifugation. The class given is physicochemical. The procedure:
Studies were carried out to determine (1) whether the synthetic LDL represent a single population of particles and (2) whether the LDLR binding domain remains accessible after the peptide is associated with the lipid. To determine what types of synthetic LDL particles were generated, the lipidated 18-A chimera was subjected to sequential ultracentrifugation at density (d) 1.063 g/ml to isolate particles equivalent to, or less dense than, native LDL. Subsequently the solution was adjusted to d 1.21 g/ml to isolate particles in the d 1.063-1.21 g/ml range and those in the d>1.21 g/ml range. The latter particles are considered lipid-poor complexes while the d 1.063-1.21 particles are in the size and density range of high density lipoproteins (HDL). […] This was an unexpected finding but is very encouraging since smaller sized complexes will be better able to diffuse through the tumor mass than larger particles. The formation of small high density complexes is reproducible since it occurred with two separate batches of synthetic 18-A chimera complexes.
To determine the distribution of lipid complexes in various density classes, sequential ultracentrifugation techniques were employed (Lindgren, F. T. et al., In Blood Lipids and Lipoproteins: Quantification, Composition and Metabolism (Nelson, G. J., ed.) pp. 181-274, John Wiley, New York (1972)); this preparative procedure is routinely used in our laboratory and is the classical method for isolation of LDL and other lipoproteins. The first centrifugation was performed at d 1.006 g/ml to isolate large lipid complexes with little peptide; the second spin was done at 1.006-1.063 g/ml to isolate particles in the LDL.size and density range; the third spin at d 1.063-1.21 g/ml isolates particles in the HDL size and density range. The d>1.21 g/ml fraction was isolated to assess how much of the peptide is in the lipid-poor form. All ultracentrifugal isolations use the Beckman TL100 ultracentrifuge for rapid isolations (all fractions can be obtained within 24 hr). […]

As for `CCCCCCCC/C=C\CCCCCCCC(=O)O[C@@H](C(=O)O[C@H]1C[C@@]2(O)[C@@H](OC(=O)c3ccccc3)[C@@H]3[C@]4(OC(C)=O)CO[C@@H]4C[C@H](O)[C@@]3(C)C(=O)[C@H](OC(C)=O)C(=C1C)C2(C)C)[C@@H](NC(=O)c1ccccc1)c1ccccc1` [Paclitaxel oleate], under “PC:TO:CO:PO 3:2:1:0.5, centrifuged and dialyzed”, the “initial PO added remained bound to the microemulsion after processing” value worked out at 48±3%. The “increase in incorporation into microemulsion as compared to paclitaxel” value (equimolar amounts added to initial lipid mixture (FIG. 14A)) is on record as 4-5 fold. The “initial PO concentration at which incorporation appears to saturate” value (varying PO in the initial lipid mixture (FIG. 13)) is given as “around 0.33 mg/mL”. For the same compound, the SF-767 cell killing result with SF-767 cells is reported as “ineffective”. The HeLa cell killing result in the data set on HeLa cells is listed as “ineffective”.
Take PALEDLRQGLLPRLTRKRGLKL [11-A chimera]: the “percent bound peptide (peptide that remains associated with the lipid micelles)” value in data set [1] is on record as 15%.
On the same count and under the same terms, the figure for “YKLEGTTRLTRKRGLKLATALS [B-peptide, reference compound]” is 8%.
For “DWLKAFYDKVAEKLKEAFRLTRKRGLKLA [18-A chimera]”, the “percent bound peptide (peptide that remains associated with the lipid micelles)” value in data set [1] is given as 33%. In addition, the “added synthetic peptide remaining associated with the lipid emulsions” value in data set [2] is “Approximately 85%”. Moreover, the “density distribution (percent) of 18-A chimera” value is recorded as 58% in data set [3] (d 1.063-1.21 g/ml (size and density range of HDL, small lipid particles)); 13% in data set [3] (d < 1.063 g/ml); 29% in data set [3] (d > 1.21 g/ml (lipid-poor)).

(Values after US8252338B2, “Synthetic LDL as targeted drug delivery vehicle” (The Regents of the University of California, priority 2005, dated 2012).)
